Test results reported in patent US20180148503A1 (Memorial Sloan Kettering, published 2018).

Experiments:
[1] = target: T1, PRA435-443 (…) / HLA-A*0201 complex (human); assay: flow cytometry on tumor cell lines
T1 construct: also called PRAME P435

[2] = target: T2, HLA-A*0201 on T2 cells without added peptide (human); assay: phage FACS on T2 cells without peptide
T2 construct: Background target (T2 cells with no peptide pulsed); also used as the HLA-A*02 partner of the peptide in the stabilisation read-out; also called T2 cells alone; unpulsed T2 cells

[3] = target: T3, 009-mut2 (…) / HLA-A*0201 complex on T2 cells (human); assay: phage FACS on peptide-loaded T2 cells
T3 construct: also called EXT009-mut2

[4] = target: T4, 009-mut4 (…) / HLA-A*0201 complex on T2 cells (human); assay: phage FACS on peptide-loaded T2 cells
T4 construct: also called EXT009-mut4

[5] = target: T5, 009-mut8 (…) / HLA-A*0201 complex on T2 cells (human); assay: phage FACS on peptide-loaded T2 cells
T5 construct: also called EXT009-mut8

[6] = target: T6, 009-mut9 (…) / HLA-A*0201 complex on T2 cells (human); assay: phage FACS on peptide-loaded T2 cells
T6 construct: also called EXT009-mut9

[7] = target: T7, 009-mut10 (…) / HLA-A*0201 complex on T2 cells (human); assay: phage FACS on peptide-loaded T2 cells
T7 construct: Alanine variant at peptide position 10

[8] = target: T8, PRA300-309 (…) / HLA-A*0201 complex (human); assay: phage FACS on peptide-loaded T2 cells
T8 construct: also called PRAME300; PRAME P300

[9] = target: T9, 009-mut7 (…) / HLA-A*0201 complex on T2 cells (human); assay: phage FACS on peptide-loaded T2 cells
T9 construct: also called EXT009-mut7; Pr306A

[10] = target: T10, 009-mut6 (…) / HLA-A*0201 complex on T2 cells (human); assay: phage FACS on peptide-loaded T2 cells
T10 construct: also called EXT009-mut6

[11] = target: T11, 009-AAAA (…) / HLA-A*0201 complex on T2 cells (human); assay: phage FACS on peptide-loaded T2 cells
T11 construct: Control peptide with alanines at positions 4-7; also called EXT009-AAAA; 009-AAAA (position 4-7)

[12] = target: T12, 009-mut3 (…) / HLA-A*0201 complex on T2 cells (human); assay: phage FACS on peptide-loaded T2 cells
T12 construct: also called EXT009-mut3; Pr302A

[13] = target: T13, 009-mut5 (…) / HLA-A*0201 complex on T2 cells (human); assay: phage FACS on peptide-loaded T2 cells
T13 construct: also called EXT009-mut5

[14] = target: T11, 009-AAAA (…) / HLA-A*0201 complex on T2 …; assay: phage FACS on peptide-loaded T2 cells; remark: listed apart in the source
[15] = target: T8, PRA300-309 (…) / HLA-A*0201 complex; assay: method not stated; told in the ADCC example with PRAME+/HLA-A*02:01+ leukemia cells; upper end of the printed range 3-4 nM
[16] = target: T8, PRA300-309 (…) / HLA-A*0201 complex; assay: cell-based or functional assay
[17] = target: T8, PRA300-309 (…) / HLA-A*0201 complex; assay: method not stated; told in the ADCC example with PRAME+/HLA-A*02:01+ leukemia cells; lower end of the printed range 3-4 nM
[18] = target: T4, 009-mut4 (…) / HLA-A*0201 complex on T2 …; assay: flow cytometry, APC-Pr300#20 at 3 µg/ml on peptide-pulsed T2 cells; the sheet gives 324 for T2 alone and 68351 for Pr300
[19] = target: T5, 009-mut8 (…) / HLA-A*0201 complex on T2 …; assay: as above
[20] = target: T6, 009-mut9 (…) / HLA-A*0201 complex on T2 …; assay: as above
[21] = target: T9, 009-mut7 (…) / HLA-A*0201 complex on T2 …; assay: as above
[22] = target: T10, 009-mut6 (…) / HLA-A*0201 complex on T2 …; assay: as above
[23] = target: T12, 009-mut3 (…) / HLA-A*0201 complex on T2 …; assay: as above
[24] = target: T13, 009-mut5 (…) / HLA-A*0201 complex on T2 …; assay: as above
[25] = target: T2, HLA-A*0201 on T2 cells without added …; assay: flow cytometry, Prame20 mAb on T2 cells without peptide; axis without numbers
[26] = target: T2, HLA-A*0201 on T2 cells without added …; assay: T2 stabilisation: surface HLA-A*02 level after pulsing with 50 µg/mL peptide, flow cytometry; the staining antibody is not named for this panel

B1: Pr435#37 antibody (antibody, V domains shown)
VH: EVQLVESGAEVKKPGASVKVSCKASGYTFTSYYMHWVRQAPGQGLEWMGIINPSGGSTSYAQKFQGRVTMTRDTSTSTVYMELSSLRSEDTAVYYCAAGSYYSLDIWGQGTMVTVSS
VL: LLPVLTQPHSVSESPGKTVTISCTGSSGSIASNFVQWYQQRPGSAPTTVIYDDNQRPSGVPDRFSASIDRSSNSASLTISGLKTDDEADYYCQSYDGSNVIFGGGTKLTVLG
notes: also called Pr4350#37
binding result [1]: binds

B2: Pr435#12 antibody (antibody, V domains shown)
VH: EVQLVESGAEVKKPGSSVKVSCKASGGTFSSYAISWVRQAPGQGLEWMGRIIPILGIANYAQKFQGRVTITADKSTSTAYMELSSLRSEDTAVYYCARQGYVWSEMDFWGQGTLVTVSS
VL: LLPVLTQPPSVSVAPGKTARITCGGNNIGSKSVHWYQQKPGQAPVLVIYYDSDRPSGIPERFSGSNSGNTATLTISRVEAGDEADYYCQVWDSITDHYVFGTGTKVTVLG
notes: also called Pr4350#12
binding result [1]: binds

B3: EXT009-8 phage (scFv phage clone) (scFv)
scFv: QSVVTQPPAVSGALGQRVTISCTGTTSNIGAGFDVHWYQQRPGAAPKLLISGNTHRPSGVPDRISGSKSGTLASLAITGLQAEDEADYYCQSYDRSLSTILFGGGTKLTVLGSRGGGGSGGGGSGGGGSLEMAQVQLVQSGAEVKKPGSSVKVSCKASGGTFSSHPISWVRQAPGQGLEWMGRIIPMLDIPNNAQKFQGRVTITADKSTDTAYLELSSLTSEDTAVYYCARGLYYYDYWGQGTLVTVSS
notes: also called EXT009-08
MFI [2]: 85.9 | MFI [3]: 83.3 | MFI [4]: 87.6 | MFI [5]: 82.5 | MFI [6]: 83.2 | MFI [7]: 83.2 | MFI [8]: 1360 | MFI [9]: 83.1 | MFI [10]: 3830 | MFI [11]: 86.3 | MFI [12]: 88.2 | MFI [13]: 138 | binding result [14]: no binding

B4: Pr300#20-MAGE (antibody, V domains shown)
VH: QVQLVQSGAEVRKPGASVKVSCKASGGTFSSYAISWVRQAPGQGLEWMGRIIPILGIANYAQKFQGRVTITADKSTSTAYMELSSLRSEDTAVYYCARHYGQWWDYWGQGTLVTVSS
VL: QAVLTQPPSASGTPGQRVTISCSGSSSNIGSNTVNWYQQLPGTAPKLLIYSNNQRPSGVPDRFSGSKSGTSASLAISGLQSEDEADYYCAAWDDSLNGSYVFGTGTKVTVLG
modifications: modified afucosylated Fc
notes: also called Pr#20-Fc enhanced; Pr20M
Kd [15]: ≤ 4 nM | EC50 (ADCC, 51Cr release, human PBMC effectors, E:T 50:1) [16]: 2 to 3 nM | Kd [17]: ≥ 3 nM

B5: Pr300#20 human IgG1 antibody (antibody, V domains shown)
VH: QVQLVQSGAEVRKPGASVKVSCKASGGTFSSYAISWVRQAPGQGLEWMGRIIPILGIANYAQKFQGRVTITADKSTSTAYMELSSLRSEDTAVYYCARHYGQWWDYWGQGTLVTVSS
VL: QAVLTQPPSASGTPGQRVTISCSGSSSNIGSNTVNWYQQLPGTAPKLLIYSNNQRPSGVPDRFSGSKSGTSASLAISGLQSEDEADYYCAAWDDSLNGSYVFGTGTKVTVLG
notes: Full-length human IgG1 with matching human lambda constant region; Used APC-conjugated in flow cytometry; also called Pr#20; PR#20
Median: APC-A [18]: 72800 | Median: APC-A [19]: 10900 | Median: APC-A [20]: 730 | Median: APC-A [21]: 41500 | Median: APC-A [22]: 28600 | Median: APC-A [23]: 18900 | Median: APC-A [24]: 6240 | binding result [25]: no binding

B6: PRA300-309 peptide (ALYVDSLFFL) (peptide)
peptide: ALYVDSLFFL
notes: also called pr300 peptide; PRAME300 peptide
binding result [26]: binds

B7: EXT009-17 phage (scFv phage clone) (scFv)
scFv: QSVLTQPPSVSGAPGQRVTISCTGSSSNIGAGFDVHWYQQLPGTAPKLLIFGNSNRPSGVPDRFSGSKSGTSASLAITGLQAEDEADYYCQSYDSSLSGYVFGSGTKVTVLGSRGGGGSGGGGSGGGGSLEMAEVQLVESGAEVKKPGSSVKVSCKASGGTFSSYAISWVRQAPGQGLEWMGRIIPIFGIANYAQKFQGRVTITADKSTSTAYMELSSLRSEDTAVYYCARSMWYMDSWGQGTLVTVSS
MFI [2]: 82.8 | MFI [3]: 82 | MFI [4]: 7510 | MFI [5]: 96.1 | MFI [6]: 79.7 | MFI [7]: 146 | MFI [8]: 19400 | MFI [9]: 82.1 | MFI [10]: 23800 | MFI [11]: 85.7 | MFI [12]: 95.5 | MFI [13]: 85.1 | binding result [14]: no binding
